# Source: IntAct's records for PubMed 19913487
# B1: ATP-dependent RNA helicase DDX3X (Homo sapiens), O00571 (parent)
# chain: MSHVAVENALGLDQQFAGLDLNSSDNQSGGSTASKGRYIPPHLRNREATKGFYDKDSSGWSSSKDKDAYSSFGSRSDSRGKSSFFSDRGSGSRGRFDDRGRSDYDGIGSRGDRSGFGKFERGGNSRWCDKSDEDDWSKPLPPSERLEQELFSGGNTGINFEKYDDIPVEATGNNCPPHIESFSDVEMGEIIMGNIELTRYTRPTPVQKHAIPIIKEKRDLMACAQTGSGKTAAFLLPILSQIYSDGPGEALRAMKENGRYGRRKQYPISLVLAPTRELAVQIYEEARKFSYRSRVRPCVVYGGADIGQQIRDLERGCHLLVATPGRLVDMMERGKIGLDFCKYLVLDEADRMLDMGFEPQIRRIVEQDTMPPKGVRHTMMFSATFPKEIQMLARDFLDEYIFLAVGRVGSTSENITQKVVWVEESDKRSFLLDLLNATGKDSLTLVFVETKKGADSLEDFLYHEGYACTSIHGDRSQRDREEALHQFRSGKSPILVATAVAARGLDISNVKHVINFDLPSDIEEYVHRIGRTGRVGNLGLATSFFNERNINITKDLLDLLVEAKQEVPSWLENMAYEHHYKGSSRGRSKSSRFSGGFGARDYRQSSGASSSSFSSSRASSSRSGGGGHGSSRGFGGGGYGGFYNSDGYGGNYNSQGVDWWGN
# Variants of: B1
# Details: with pg044_vaccw OPG044, P68466
row,Variant,effect of a mutation on the interaction
1,F84A;F85A,disrupting interaction
